What all share (assay): SPR
Experiment [1] addresses Human IgG1 CR3022 antibody (human).
In experiment [2] the target is Glycosylated human basigin (BSG-2, mammalian cell-expressed) (human).
In experiment [3] the target is Nonglycosylated human basigin ectodomain (BSG-2, E. coli-expressed) (human).

Chain of Human IgG1 CR3022 antibody (human) (heavy, as listed by the source, chain 1 of 2): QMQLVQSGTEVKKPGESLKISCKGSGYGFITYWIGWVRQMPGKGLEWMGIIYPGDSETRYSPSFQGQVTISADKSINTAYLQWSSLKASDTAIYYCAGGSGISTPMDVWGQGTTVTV
Chain of Human IgG1 CR3022 antibody (human) (light, as listed by the source, chain 2 of 2): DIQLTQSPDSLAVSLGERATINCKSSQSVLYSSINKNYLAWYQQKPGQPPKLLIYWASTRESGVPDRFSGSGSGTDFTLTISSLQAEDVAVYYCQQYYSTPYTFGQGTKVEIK

By Kd is commonly meant the constant that tells how readily two partners part at equilibrium. A low value points to higher affinity. Consider “SARS-CoV-2 spike receptor binding domain (from UniProt P0DTC2 319-541) (domain or fragment)”, for which, in experiment [1], the Kd is 190 nM. In other words, the sub-micromolar range. For the substance “Plasmodium falciparum reticulocyte-binding protein homolog 5 (recombinant RH5) (from UniProt Q8IFM5 26-526) (ligand)”, the Kd in experiment [2] turned out to be 665 nM; in experiment [3] it was 925 nM.

The values above are taken from PMC8386461.
